Measured values from patent publication US20140271457A1 (AbbVie / Abbott, published 2014).

How the values were obtained:
[1] = molecular target: T1, Recombinant Human TNF-α/TNFSF1A (human, UniProt P01375 77-233); assay: Biacore SPR
T1 construct: vendor reagent is named for Biacore; the neutralization assay says only huTNFα; also called huTNFα
In short: (§1)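 Kinetic constants come from global 1:1 model fitting (Rmax local) at 0.8–100 nM antigen. Flow was 50 μl/min with 5 min association and 10 min dissociation. Capture used goat anti-mouse IgG Fcγ on a CM5 chip in HBS-EP+ at 25 °C.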

[2] = molecular target: T1, Recombinant Human TNF-α/TNFSF1A; assay: cell-based or functional assay
Recombinant Human IL-13 = Recombinant Human IL-13 (human, UniProt P35225 35-146, limits assumed); assay: Biacore SPR
Sequence of Recombinant Human IL-13 (P35225 35-146 limits assumed): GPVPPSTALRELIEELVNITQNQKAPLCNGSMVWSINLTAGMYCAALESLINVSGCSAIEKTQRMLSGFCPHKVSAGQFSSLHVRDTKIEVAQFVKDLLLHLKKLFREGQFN
In short: as §1

Recombinant Human β-NGF = Recombinant Human β-NGF (human, UniProt P01138 122-241); assay: cell-based or functional assay
Sequence of Recombinant Human β-NGF (P01138 122-241 limits assumed): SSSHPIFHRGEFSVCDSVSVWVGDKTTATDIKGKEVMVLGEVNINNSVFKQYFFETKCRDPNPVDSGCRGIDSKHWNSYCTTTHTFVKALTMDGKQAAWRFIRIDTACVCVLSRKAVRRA

T1 sequence (P01375 77-233 limits assumed): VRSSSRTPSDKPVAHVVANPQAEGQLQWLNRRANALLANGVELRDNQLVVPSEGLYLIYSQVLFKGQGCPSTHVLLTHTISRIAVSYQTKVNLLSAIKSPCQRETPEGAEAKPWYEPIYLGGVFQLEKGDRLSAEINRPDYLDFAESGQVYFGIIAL

B1: AB441 (antibody, V domains shown)
VH: EVQLVQSGAEVKKPGASVKVSCKASGYTFANYGIIWVRQAPGQGLEWMGWINTYTGKPTYAQKFQGRVTMTTDTSTSTAYMELSSLRSEDTAVYYCARKLFTTMDVTDNAMDYWGQGTTVTVSS
VL: DIQMTQSPSSLSASVGDRVTITCRASQDISQYLNWYQQKPGKAPKLLIYYTSRLQSGVPSRFSGSGSGTDFTLTISSLQPEDFATYFCQQGNTWPPTFGQGTKLEIKR
notes: parent antibody
Kd [1]: 2.4 pM
koff [1]: 1.8e-05 s⁻¹
kon [1]: 7.5e+06 M⁻¹ s⁻¹
huTNFα Neutralization Assay IC50 [2]: 37 pM

B2: DVD3106 (bispecific antibody, IgG1)
VH: EVQLVQSGAEVKKPGASVKVSCKASGYTFANYGIIWVRQAPGQGLEWMGWINTYTGKPTYAQKFQGRVTMTTDTSTSTAYMELSSLRSEDTAVYYCARKLFTTMDVTDNAMDYWGQGTTVTVSSASTKGPEVQLVQSGAEVKKPGASVKVSCKASGYTFTTYGVSWVRQAPGQGLEWMGEIYPGNYNTYYNEKFRGRVTMTTDTSTSTAYMELRSLRSDDTAVYYCARWRTSYFSDYGYFDYWGQGTTVTVSS
VL: DIQMTQSPSSLSASVGDRVTITCRASQDISQYLNWYQQKPGKAPKLLIYYTSRLQSGVPSRFSGSGSGTDFTLTISSLQPEDFATYFCQQGNTWPPTFGQGTKLEIKRTVAAPSVFIFPPDVVMTQSPLSLPVTLGQPASISCRSSQSLVHSHGNTYLHWYQQRPGQSPRLLIYTVSNRFSGVPDRFSGSGSGTDFTLKISRVEAEDVGVYYCSQSTHVPYTFGGGTKVEIKR
notes: DVD-Ig; wt hIgG1 + kappa constants
Kd [1]: 22 pM
koff [1]: 8.5e-05 s⁻¹
kon [1]: 3.9e+06 M⁻¹ s⁻¹
Kd (Recombinant Human IL-13): 110 pM
koff (Recombinant Human IL-13): 6.4e-05 s⁻¹
kon (Recombinant Human IL-13): 570000 M⁻¹ s⁻¹
N-Terminal VD huTNFα Neutralization Assay IC50 [2]: 18 pM

B3: DVD3107 (bispecific antibody, IgG1)
VH: EVQLVQSGAEVKKPGASVKVSCKASGYTFANYGIIWVRQAPGQGLEWMGWINTYTGKPTYAQKFQGRVTMTTDTSTSTAYMELSSLRSEDTAVYYCARKLFTTMDVTDNAMDYWGQGTTVTVSSASTKGPSVFPLAPEVQLVQSGAEVKKPGASVKVSCKASGYTFTTYGVSWVRQAPGQGLEWMGEIYPGNYNTYYNEKFRGRVTMTTDTSTSTAYMELRSLRSDDTAVYYCARWRTSYFSDYGYFDYWGQGTTVTVSS
VL: DIQMTQSPSSLSASVGDRVTITCRASQDISQYLNWYQQKPGKAPKLLIYYTSRLQSGVPSRFSGSGSGTDFTLTISSLQPEDFATYFCQQGNTWPPTFGQGTKLEIKRTVAAPDVVMTQSPLSLPVTLGQPASISCRSSQSLVHSHGNTYLHWYQQRPGQSPRLLIYTVSNRFSGVPDRFSGSGSGTDFTLKISRVEAEDVGVYYCSQSTHVPYTFGGGTKVEIKR
notes: as for B2
Kd [1]: 53 pM
koff [1]: 0.00015 s⁻¹
kon [1]: 2.8e+06 M⁻¹ s⁻¹
Kd (Recombinant Human IL-13): 87 pM
koff (Recombinant Human IL-13): 7e-05 s⁻¹
kon (Recombinant Human IL-13): 810000 M⁻¹ s⁻¹
N-Terminal VD huTNFα Neutralization Assay IC50 [2]: 15 pM

B4: DVD3163 (bispecific antibody, IgG1)
VH: EVQLVQSGAEVKKPGASVKVSCKASGYTFANYGIIWVRQAPGQGLEWMGWINTYTGKPTYAQKFQGRVTMTTDTSTSTAYMELSSLRSEDTAVYYCARKLFTTMDVTDNAMDYWGQGTTVTVSSGGGGSGGGGSEVQLVQSGAEVKKPGASVKVSCKASGYTFTSYWMHWVRQAPGQGLEWIGNINPKGGSNIYNEKFQGRVTMTRDTSISTAYMELSRLRSDDTAVYYCARLDYFGDSFDLWGQGTTVTVSS
VL: DIQMTQSPSSLSASVGDRVTITCRASQDISQYLNWYQQKPGKAPKLLIYYTSRLQSGVPSRFSGSGSGTDFTLTISSLQPEDFATYFCQQGNTWPPTFGQGTKLEIKRGGSGGGGSGDIQMTQSPSSLSASVGDRVTITCRASQGIRNYLNWYQQKPGKAPKLLIYYASNLEVGVPSRFSGSGSGTDYTLTISSLQPEDFATYYCQQDNRFPYTFGGGTKVEIKR
notes: as for B2
Kd [1]: 3.9 pM
koff [1]: 5e-05 s⁻¹
kon [1]: 1.3e+07 M⁻¹ s⁻¹
Kd (Recombinant Human IL-13): 610 pM
koff (Recombinant Human IL-13): 8.4e-05 s⁻¹
kon (Recombinant Human IL-13): 140000 M⁻¹ s⁻¹
N-Terminal VD huTNFα Neutralization Assay IC50 [2]: 15 pM

B5: DVD3164 (bispecific antibody, IgG1)
VH: EVQLVQSGAEVKKPGASVKVSCKASGYTFANYGIIWVRQAPGQGLEWMGWINTYTGKPTYAQKFQGRVTMTTDTSTSTAYMELSSLRSEDTAVYYCARKLFTTMDVTDNAMDYWGQGTTVTVSSASTKGPEVQLVQSGAEVKKPGASVKVSCKASGYTFTSYWMHWVRQAPGQGLEWIGNINPKGGSNIYNEKFQGRVTMTRDTSISTAYMELSRLRSDDTAVYYCARLDYFGDSFDLWGQGTTVTVSS
VL: DIQMTQSPSSLSASVGDRVTITCRASQDISQYLNWYQQKPGKAPKLLIYYTSRLQSGVPSRFSGSGSGTDFTLTISSLQPEDFATYFCQQGNTWPPTFGQGTKLEIKRTVAAPDIQMTQSPSSLSASVGDRVTITCRASQGIRNYLNWYQQKPGKAPKLLIYYASNLEVGVPSRFSGSGSGTDYTLTISSLQPEDFATYYCQQDNRFPYTFGGGTKVEIKR
notes: as for B2
Kd [1]: 16 pM
koff [1]: 6.5e-05 s⁻¹
kon [1]: 4e+06 M⁻¹ s⁻¹
Kd (Recombinant Human IL-13): 870 pM
koff (Recombinant Human IL-13): 4.8e-05 s⁻¹
kon (Recombinant Human IL-13): 55000 M⁻¹ s⁻¹
N-Terminal VD huTNFα Neutralization Assay IC50 [2]: 21 pM

B6: DVD3166 (bispecific antibody, IgG1)
VH: B5 VH
VL: DIQMTQSPSSLSASVGDRVTITCRASQDISQYLNWYQQKPGKAPKLLIYYTSRLQSGVPSRFSGSGSGTDFTLTISSLQPEDFATYFCQQGNTWPPTFGQGTKLEIKRTVAAPSVFIFPPDIQMTQSPSSLSASVGDRVTITCRASQGIRNYLNWYQQKPGKAPKLLIYYASNLEVGVPSRFSGSGSGTDYTLTISSLQPEDFATYYCQQDNRFPYTFGGGTKVEIKR
notes: as for B2
Kd [1]: 27 pM
koff [1]: 0.00013 s⁻¹
kon [1]: 4.7e+06 M⁻¹ s⁻¹
Kd (Recombinant Human IL-13): 180 pM
koff (Recombinant Human IL-13): 5.1e-05 s⁻¹
kon (Recombinant Human IL-13): 280000 M⁻¹ s⁻¹
N-Terminal VD huTNFα Neutralization Assay IC50 [2]: 16 pM

B7: DVD3168 (bispecific antibody, IgG1)
VH: EVQLVQSGAEVKKPGASVKVSCKASGYTFTSYWMHWVRQAPGQGLEWIGNINPKGGSNIYNEKFQGRVTMTRDTSISTAYMELSRLRSDDTAVYYCARLDYFGDSFDLWGQGTTVTVSSGGGGSGGGGSEVQLVQSGAEVKKPGASVKVSCKASGYTFANYGIIWVRQAPGQGLEWMGWINTYTGKPTYAQKFQGRVTMTTDTSTSTAYMELSSLRSEDTAVYYCARKLFTTMDVTDNAMDYWGQGTTVTVSS
VL: DIQMTQSPSSLSASVGDRVTITCRASQGIRNYLNWYQQKPGKAPKLLIYYASNLEVGVPSRFSGSGSGTDYTLTISSLQPEDFATYYCQQDNRFPYTFGGGTKVEIKRGGSGGGGSGDIQMTQSPSSLSASVGDRVTITCRASQDISQYLNWYQQKPGKAPKLLIYYTSRLQSGVPSRFSGSGSGTDFTLTISSLQPEDFATYFCQQGNTWPPTFGQGTKLEIKR
notes: as for B2
Kd [1]: 45 pM
koff [1]: 3.6e-05 s⁻¹
kon [1]: 800000 M⁻¹ s⁻¹
Kd (Recombinant Human IL-13): 64 pM
koff (Recombinant Human IL-13): 7.4e-05 s⁻¹
kon (Recombinant Human IL-13): 1.1e+06 M⁻¹ s⁻¹
C-Terminal VD huTNFα Neutralization Assay IC50 [2]: 146 pM

B8: DVD3039 (bispecific antibody, IgG1)
VH: EVQLVQSGAEVKKPGASVKVSCKASGYTFNNYGIIWVRQAPGQGLEWMGWINTYTGKPTYAQKFQGRVTMTTDTSTSTAYMELSSLRSEDTAVYYCARKLFNTVAVTDNAMDYWGQGTTVTVSSASTKGPEVQLVESGGGLVQPGGSLRLSCAASGFSLTNNNVNWVRQAPGKGLEWVGGVWAGGATDYNSALKSRFTISRDNSKNTAYLQMNSLRAEDTAVYYCARDGGYSSSTLYAMDAWGQGTLVTVSS
VL: DIQMTQSPSSLSASVGDRVTITCRASQDIENYLNWYQQKPGKAPKLLIYYTSRLQSGVPSRFSGSGSGTDFTLTISSLQPEDFATYFCQQGNTQPPTFGQGTKLEIKRTVAAPDIQMTQSPSSLSASVGDRVTITCRASEDIYNALAWYQQKPGKAPKLLIYNTDTLHTGVPSRFSGSGSGTDYTLTISSLQPEDFATYFCQHYFHYPRTFGQGTKVEIKR
N-Terminal VD huTNFα Neutralization Assay IC50 [2]: 12 pM
C-Terminal VD NGF Neutralization Assay IC50 (Recombinant Human β-NGF): 88 pM

B9: DVD3041 (bispecific antibody, IgG1)
VH: B8 VH
VL: DIQMTQSPSSLSASVGDRVTITCRASQDIENYLNWYQQKPGKAPKLLIYYTSRLQSGVPSRFSGSGSGTDFTLTISSLQPEDFATYFCQQGNTQPPTFGQGTKLEIKRTVAAPSVFIFPPDIQMTQSPSSLSASVGDRVTITCRASEDIYNALAWYQQKPGKAPKLLIYNTDTLHTGVPSRFSGSGSGTDYTLTISSLQPEDFATYFCQHYFHYPRTFGQGTKVEIKR
N-Terminal VD huTNFα Neutralization Assay IC50 [2]: 6 pM
C-Terminal VD NGF Neutralization Assay IC50 (Recombinant Human β-NGF): > 10000 pM

B10: DVD3042 (bispecific antibody, IgG1)
VH: EVQLVQSGAEVKKPGASVKVSCKASGYTFNNYGIIWVRQAPGQGLEWMGWINTYTGKPTYAQKFQGRVTMTTDTSTSTAYMELSSLRSEDTAVYYCARKLFNTVAVTDNAMDYWGQGTTVTVSSASTKGPSVFPLAPEVQLVESGGGLVQPGGSLRLSCAASGFSLTNNNVNWVRQAPGKGLEWVGGVWAGGATDYNSALKSRFTISRDNSKNTAYLQMNSLRAEDTAVYYCARDGGYSSSTLYAMDAWGQGTLVTVSS
VL: B8 VL
N-Terminal VD huTNFα Neutralization Assay IC50 [2]: 6 pM
C-Terminal VD NGF Neutralization Assay IC50 (Recombinant Human β-NGF): > 10000 pM

B11: DVD3046 (bispecific antibody, IgG1)
VH: EVQLVESGGGLVQPGGSLRLSCAASGFSLTNNNVNWVRQAPGKGLEWVGGVWAGGATDYNSALKSRFTISRDNSKNTAYLQMNSLRAEDTAVYYCARDGGYSSSTLYAMDAWGQGTLVTVSSASTKGPEVQLVQSGAEVKKPGASVKVSCKASGYTFNNYGIIWVRQAPGQGLEWMGWINTYTGKPTYAQKFQGRVTMTTDTSTSTAYMELSSLRSEDTAVYYCARKLFNTVAVTDNAMDYWGQGTTVTVSS
VL: DIQMTQSPSSLSASVGDRVTITCRASEDIYNALAWYQQKPGKAPKLLIYNTDTLHTGVPSRFSGSGSGTDYTLTISSLQPEDFATYFCQHYFHYPRTFGQGTKVEIKRTVAAPSVFIFPPDIQMTQSPSSLSASVGDRVTITCRASQDIENYLNWYQQKPGKAPKLLIYYTSRLQSGVPSRFSGSGSGTDFTLTISSLQPEDFATYFCQQGNTQPPTFGQGTKLEIKR
C-Terminal VD huTNFα Neutralization Assay IC50 [2]: 50 pM
N-Terminal VD NGF Neutralization Assay IC50 (Recombinant Human β-NGF): 145 pM
